# Data: the nanobody polyreactivity screen of Harvey et al. (2022)
# Assay: yeast display, Sf9 membrane polyspecificity reagent, FACS + sequencing; frameworks hold sequencing errors
# Summary of the method: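 Using colony PCR, genes from sorted yeast display clones were amplified, then sequenced on MiSeq at 2 × 250 and filtered by CDR length. The clones had been stained with 10% biotinylated, detergent-solubilized Sf9 membrane reagent for 1 hour at 4 °C and sorted by FACS into low and high (top ~1%) gates on anti-HA and streptavidin fluorescence. Polyreactivity labels come from the gate of origin.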
row,Sequence,polyreactivity (PSR sort gate)
1,QVQLVESGGGLVQAGGSLSLSCAASGSTFTYYDMGWYRQAPGKERELVAAISSSGGRTYYSDSVKGRFTISRDNAKNTVYLQMNSLKPEDTAVYYCARVVRPTDGDYWGQGTQVTVSS,high polyreactivity
2,QVQLVESGGGLVQAGGSLSLSCAASGSTFVPYAMGWYRQAPGKERELVAAISSTGGSTYYADSVKGRFTISRDNAKNTVYLQMNSLKAEDTAVYYCNALAKIRYGQINKGYYWGQGTQVTVSS,high polyreactivity
3,QVQLVESGGGLVQAGGSLSLSCAASGYIFLVYAMGWYRQAPGKERELVASITRGGGTTYYADSVKGRFTISRDNAKNTVYLLMNSLKREDTAVYYCAADLYSRGHRWYGYWGQGTQVTVSS,high polyreactivity
4,QVQLVESGGGLVQAGGSLSLSCAASGYTLYANAMGWYRQAPGKERELVAAIRSGGSTNYADSVKGRFTISRDNAKNTVYLQMNSMKPEDTAVYYCAKDPYQDFLYLRYYGYYYWGQGTQVTVSS,low polyreactivity
5,QVQLVESGGGLVQAGGSLSLSCPASGRTFSTNAMGWYRQAPGKEREMVAAISARGGSTYYADSVKGRFTISRDNAKNTVYLQMNSLKPEDTAVEYCALRPGRYSYAFDFWGQGTQVTVSS,high polyreactivity
6,QVQLVESGGGLVQAGGSLSLSSAASGRPFIRNAMGWSRQAAGKERELVAGINSGGITNYADSVKGRFTISRDNAKNTVYLQMNSLKPVDTAFYYCNARQVLYGLYLRAYPYEYWGQGTQVTVSS,low polyreactivity
7,QVQLVESGGGLVQAGGSLSLSSAASGRTFGIYAMGWYRQEPGKERELVAAITWSGDSTYYADSVKGRFTISRDNAKNTVYLQLNSLKPEDTAVDYCAADYVGVTYVRYDYWGQGTQVTVSS,low polyreactivity
8,QVQLVESGGGLVQAGGSLSLSSAASGSIFVGNAIAWYRQAPGKERELVATISWSCGSTYYADSVKGRFTISRDYAKNNVYLQMNSRKPEDTAVYYCAAEFGGYDPYDYWGQGTQVTVSS,low polyreactivity
9,QVQLVESGGGLVQAGGSLSLSSDASGSPLFSDAMGWYRQAPGKEREFVAAISRRGRSTYYADSVKGRFTISRDNAKNSVYFQMNSLIPEDTAVYYCAARDSSYNWYGYWGQGTQVTVSS,high polyreactivity
10,QVQLVESGGGLVQAGGSLSLTCAASGIIFSYNAMGWYRQATGKERELVAAISWSGGSTYYADSVKGRFTISRDNAKNTVYLQMNSLKPEDTAVYYCNAPYLIRFKRLGDNWGQGTQVTVSS,high polyreactivity
11,QVQLVESGGGLVQAGGSLSLTCAASGRTFESNAMGWYRQAPGKERELVAVITSGGITNYTDSVKGRFTISRDNAKNTVYLQLNSLKPVDTAVYYCEFYYWGQGTQVTVSS,low polyreactivity
12,QVQLVESGGGLVQAGGSLSLTCAASGSSFWPYAMGWYRQAPGKELELVAASTTRDGSTYYADSVKGRFTISRDNAKNTVYLQMISLKTEDTAVYYSAAVVLRDGWWGYYYWGQGTQVTVSS,high polyreactivity
13,QVQLVESGGGLVQAGGSLSLTWAASGSTFSYYVMGWYRQAPGKETELVAGITRGGRTYYADSENGRFTISRDNAKNSVFLQMNSLKPEDTAVYYCAKDQGGVLELDYWGQGTQVTVSS,low polyreactivity
14,QVQLVESGGGLVQAGGSPRLSCAASGFTFGHYAMGWYREAPGKERELVAAISIDGGRTYYADSVKGRFTISRDNAKNSVYLQMNSLKPEDTAVYYCAVPRWFYYYWGQGTQVTVSS,high polyreactivity
15,QVQLVESGGGLVQAGGSQRLSCAASGSIFLRYAMGWYRQAPGKERELVAAITSSGGSTYYADSVKGRFTISRDNAKNTVYLQMTSLKPEDTAVYYCNRYSYLFPYYWKYDYWGQGTQVTVSS,high polyreactivity
16,QVQLVESGGGLVQAGGSRLSCAASGLIFISYTMGWYRPAPGKERELVAAIDSSGGNTYYADSVKGRFTISRDNAKNTVYLQMNSLKPEDTAVYYCAKDVGHGAGNLMGYWGQGTQVTVSS,low polyreactivity

row,Sequence,polyreactivity (PSR sort gate)
1,QVQLVESGGGLVQAGGSRRLICAASGITFFAYTLGWYRQAPGKERELVASITGSSGGTYYADSVKGRFTISRDNAKNTVYLQMNSLKPEDTAVYYCATAYGRKLLLRGFYDQSHDMDYWGQGTQVTVSS,low polyreactivity
2,QVQLVESGGGLVQAGGSRRLSCAASGGTFPFNAMGWYSPAPGKERELVAAITFTTSSTYYADSVKGRFTMSRDNAKNTVYLQMTSLKPEDTAVDYCAVDYGWYSAYYRESDYWGQGTQVTVSS,low polyreactivity
3,QVQLVESGGGLVQAGGSRRLSCAASGLICLLYDMGWYREAPGKERELVAAISTGGSTDYADSVKGRFTISRDNAKNTVYLPLNSLKPEDTAVYYCAADYYLYYLDGEDYWVQGTQVTVSS,high polyreactivity
4,QVQLVESGGGLVQAGGSRRLSCAASGLIYWYAMGWYRQAPGKERELVAAISSNGGSTYYADSVKGRFTISRDNAKNTVYLQMNSLKPEDTAVYYCAVTSFGYSVLERDYWGQGTQVTVSS,low polyreactivity
5,QVQLVESGGGLVQAGGSRRLSCAASGNTFYANVMGWYRQAPGKERELVASITWSGGSTYYADSVKGRFTISRDNAKNTVYLQMNSLKPEDTAVYYCATSGDRLVWGQGTQVTVSS,low polyreactivity
6,QVQLVESGGGLVQAGGSRRLSCAASGRIFDTYTMGWYRQAPGKERELVAAITTGGSTYYADSVKGRFTISRDNAMNTVYLQMNSLKPEDTAVYYCAARYRSIIRYYYWGQGTQVTVSS,high polyreactivity
7,QVQLVESGGGLVQAGGSRRLSCAASGRIFTTYAMGWYRQAPGKERELVAAITRNGGRTYYADSVKGRFTLSRDNAKNTVYVPMHSLKPEDTAVYYCAAVYRSFGKVYGMDYWGQGTQVTVSS,high polyreactivity
8,QVQLVESGGGLVQAGGSRRLSCAASGRTFEGNAMGWYRPAPGKERELVAAISTSGGRTYYADSVKGRFTISRDNAKNTVYLQLNSLIPEDTAVYDCNTDQYSPYEYSSFDSWGQCTQVTVSS,low polyreactivity
9,QVQLVESGGGLVQAGGSRRLSCAASGRTFPYNAMGWYRQATGKERELVATNDSSGTRTFYADSVKGRFTISRDNAKNTVYLQLNRLKPEDNAVYYCAAGIIYSNETNITSYDYWGQGTQVTVSS,low polyreactivity
10,QVQLVESGGGLVQAGGSRRLSCAASGRVFFNNAMGWYRQAPGKDREWVAGITSGSSTNYADSVKGRFTISRDNAKNTVYLQMNSLKPEYTAVDYCNKAPSWWDVRVPFDYWGQGTQVTVSS,low polyreactivity
11,QVQLVESGGGLVQAGGSRRLSCAASGSTFRGNAMGWYRQAPGKERELVAAITWSGDDTYYADSVKGRFTISRDNAKNTVYLQMNSLKPEDTAVYYCAADLAAFTLAVAYTYDYWGQGTQVTVSS,low polyreactivity
12,QVQLVESGGGLVQAGGSRRLSCAASGSTFWYYAMGWYRQAPGKERELVAAIRWSDGSTYYADSVKGRFTISRDNAKNTVYLQMTSLKPEDTAVYYCEYYYWGQGTQVTVSS,low polyreactivity
13,QVQLVESGGGLVQAGGSRRLSCAASGSTVYTNAMGWSRQAPGKVRELVAAISGSGGSTYYADSVKGRFTISRDNPKNTVYLQMNSLKPEDTAVYYCAARSRNYDTRFDYWGQGTQVTVSS,low polyreactivity
14,QVQLVESGGGLVQAGGSRRLTCAGSGYIFRPYAKRWYRQAPGKERELVAVISSGGSTYYADSVKGRFTISRDNEKNTVYFQMNSLKPQDTAVYYCKRTLWSMGGTTYEYWGQGTQVTVSS,low polyreactivity
15,QVQLVESGGGLVQAGGSVRISCAASGRTFWYYAMGVYIQAPRKERELLAAITGRGGSTHYADSVKGRLTISRDNAKNTVYLPMISLKPEDTAVYYCAKDHYYRFPWGTGGYRGQGTQVTVSS,low polyreactivity
16,QVQLVESGGGLVQAGGTLPLSCAASGRTFNGNAMGWYRQAPGKERELVATINYSGGSTYYADSVKGRFTISRDNAKNTVYLQMNSLKPEDNAVYYCAAGGYPWYLRRGGFAGYDYWGQGTQLTVSS,low polyreactivity
